The values below are quoted from earlier work in article PMC4664823.

One data set has as its target Glu14 (UniProt position 14, GAILAEVIGTT). As to conditions: competition between substrate and protons; various preparations in earlier work.
Another data set deals with Asp14 (UniProt position 14, GAILADVIGTT). To be noted: competition between substrate and protons; various preparations in earlier work.

Turning to “EmrE (small multidrug resistance transporter), wild type (Escherichia coli)”, in the data set with Glu14, the pKa is 6.8 to 8.5 and ≈7.3.

Consider E14D-EmrE (Escherichia coli; E14D), for which the pKa result with Asp14 is “≈5.0–6.7 and ≈5.4”.

Broadly, the pKa is the pH at which an ionisable group is half protonated.
